# According to patent US20150344570A1 (published 2015):
# Changes are numbered by the printed parent chain. In names and notes the source's numbering stands. Like-named read-outs stand apart in the source and are kept apart here.
# B1: IL6R-BP253/IL6R-L (antibody, human IgG1, kappa)
# heavy: QVQLQESGPGLVKPSETLSLTCAVSGHSISHDHAWSWVRQPPGEGLEWIGFISYSGITNYNPSLQGRVTISRDNSKNTLYLQMNSLRAEDTAVYYCARSLARTTAMDYWGEGTLVTVSSASTKGPSVFPLAPSSKSTSGGTAALGCLVKDYFPEPVTVSWNSGALTSGVHTFPAVLQSSGLYSLSSVVTVPSSSLGTQTYICNVNHKPSNTKVDKKVEPKSCDKTHTCPPCPAPELLGGPSVFLFPPKPKDTLMISRTPEVTCVVVDVEHEDPEVKFNWYVDGVEVHNAKTKPREEQYNSTYRVVSVLTVLHQDWLNGKEYKCKVSNKAFPAPIEKTISKAKGQPREPQVYTLPPSRDELTKNQVSLTCLVKGFYPSDIAVEWESNGQPENNYKTTPPVLDSDGSFFLYSKLTVDKSRWQQGNVFSCSVMHEALHNHYTQESLSLSP
# light: not shown
# notes: Homodimer
# B2: H240-Kn061/H240-Hl071/L73-k0 (antibody, human IgG1, kappa)
# heavy 1: QDQLVQSGAEVKKPGASVKVSCKASGFNIKDTYIQWVRQAPGQGLEWMGRIDPLRKQTKYREKFEGRVTITADTSTNTAYMELSSLRSEDTAVYYCVRSGREFDYWGQGTLVTVSSASTKGPSVFPLAPSSKSTSGGTAALGCLVKDYFPEPVTVSWNSGALTSGVHTFPAVLQSSGLYSLSSVVTVPSSSLGTQTYICNVNHKPSNTKVDKKVEPKSCDKTHTCPPCPAPEYYWGPSVFLFPPKPKDTLMISRTPEVTCVVVDVSDEDPEVKFNWYVDGVEVHNAKTKPREEQYNATYRVVSVLTVLHQDWLNGKEYKCKVSNKALPAPIEKTISKAKGQPREPQVCTLPPSRDELTKNQVSLWCLVKGFYPSDIAVEWESNGQPENNYKTTPPVLDSDGSFFLYSKLTVDKSRWQQGNVFSCSVMHEALHNHYTQKSLSLSP
# heavy 2: QDQLVQSGAEVKKPGASVKVSCKASGFNIKDTYIQWVRQAPGQGLEWMGRIDPLRKQTKYREKFEGRVTITADTSTNTAYMELSSLRSEDTAVYYCVRSGREFDYWGQGTLVTVSSASTKGPSVFPLAPSSKSTSGGTAALGCLVKDYFPEPVTVSWNSGALTSGVHTFPAVLQSSGLYSLSSVVTVPSSSLGTQTYICNVNHKPSNTKVDKKVEPKSCDKTHTCPPCPAPELLGGPSVFLFPPKPKDTLMISRTPEVTCVVVDVSHEDPEVKFNWYVDGVEVHNAKTKPREEQYNSTYRVVSVLTVLHQDWLNGKEYKCKVSNDALPMPIEETISKAKGQPREPQVYTLPPSRCELTKNQVSLSCAVKGFYPSDIAVEWESNGQPENNYKTTPPVLDSDGSFFLVSKLTVDKSRWQQGNVFSCSVMHEALHNHYTQKSLSLSP
# light: DIQMTQSPSSLSASVGDRVTITCRASQDIHKYIAWYQQKPGQAPRLLIQYTSTLQPGVPSRFSGSGSGTDYTFTISSLQPEDIATYYCLQYEQLRTFGGGTKVEIKRTVAAPSVFIFPPSDEQLKSGTASVVCLLNNFYPREAKVQWKVDNALQSGNSQESVTEQDSKDSTYSLSSTLTLSKADYEKHKVYACEVTHQGLSSPVTKSFNRGEC
# notes: Heterodimerized anti-epiregulin IgG1, knobs-into-holes
# B3: H240-Kn061/H240-Hl071/L73-k0 (antibody, human IgG1, kappa)
# heavy 1: B2 heavy 1
# heavy 2: B2 heavy 2
# light: B2 light
# notes: Heterodimerized: L234Y/L235Y/G236W/H268D/S298A in the knob chain, K326D/A330M/K334E in the hole chain
# Legend:
# [1] = target: T1, FcgRIIaR (human, UniProt P12318 34-217); experiment: SPR (Biacore); KD of IL6R-B3/IL6R-L divided by KD of the sample
# T1 construct: extracellular domain; Allotype R131; also called FcγRIIa R; FcgRIIa type R; not shown: His tag attached to the C terminus
# T1 sequence (looked up): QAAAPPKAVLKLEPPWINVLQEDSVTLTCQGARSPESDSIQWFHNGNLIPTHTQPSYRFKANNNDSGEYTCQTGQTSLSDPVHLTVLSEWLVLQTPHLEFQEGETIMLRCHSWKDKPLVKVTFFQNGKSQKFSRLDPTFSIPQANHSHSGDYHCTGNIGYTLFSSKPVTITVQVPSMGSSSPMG
# [2] = target: T2, FcgRIIaH (human, UniProt P12318 34-217); experiment: as above
# T2 construct: extracellular domain; Allotype H131; also called FcγRIIa H; FcgRIIa type H; not shown: His tag attached to the C terminus
# T2 sequence (looked up): T1 sequence (looked up) with R134H
# [3] = target: T3, FcgRIIb (human, UniProt P31994 43-217); experiment: as above
# T3 construct: extracellular domain; also called FcγRIIb; CD32B; not shown: His tag attached to the C terminus
# T3 sequence (looked up): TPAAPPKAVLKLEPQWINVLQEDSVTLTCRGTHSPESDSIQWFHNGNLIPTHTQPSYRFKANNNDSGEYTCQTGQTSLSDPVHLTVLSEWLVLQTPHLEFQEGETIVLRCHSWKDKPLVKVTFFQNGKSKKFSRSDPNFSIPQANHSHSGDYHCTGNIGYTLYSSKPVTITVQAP
# [4] = target: T4, FcγRIa extracellular domain with C-terminal His tag (human, UniProt P12314 16-292); experiment: SPR (Biacore), antibody captured on chip, soluble FcγR as analyte, 1:1 Langmuir fit
# T4 construct: extracellular domain; Soluble receptor expressed in FreeStyle293 cells; used as analyte in Biacore; also called FcgRIa; FcgRI; not shown: His tag at the C terminus
# Method: (§1) Analysis of interaction between objective antibody and the FcγR was carried out using Biacore T100 (GE Healthcare), Biacore T200, Biacore A100, and Biacore 4000. HBS-EP+ (GE Healthcare) was used as the running buffer, and the measurement temperature was set to 25° C. Chips produced by immobilizing the antigen peptide by the amine coupling method to a Series S sensor Chip CM5 (GE Healthcare), chips produced by allowing preliminarily biotinylated antigen peptides to interact with and immobilize onto a Series S Sensor Chip SA (certified) (GE Healthcare), chips produced by immobilizing Protein L (ACTIGEN, BioVision) to Series S Sencor Chip CM5 (GE Healthcare), or chips produced by immobilizing Protein A/G (Thermo Scientific) to Series S Sencor Chip CM5 (GE Healthcare) were used. Antibodies of interest were captured onto these chips, and allowed to interact to each FcγR diluted with running buffer. To regenerate and repeatedly use the chip, the antibodies captured onto the chip were washed off by reacting 10 mM glycine-HCl, pH 1.5.
# [5] = target: T5, FcγRIIa R extracellular domain with C-terminal His tag (human, UniProt P12318 34-217); experiment: as above
# T5 construct: extracellular domain; Soluble receptor, R131 allotype; also called FcgRIIa R; FcgRIIaR; not shown: His tag at the C terminus
# T5 sequence (looked up): T1 sequence (looked up)
# Method: as §1
# [6] = target: T6, FcγRIIa H extracellular domain with C-terminal His tag (human, UniProt P12318 34-217); experiment: as above
# T6 construct: extracellular domain; Soluble receptor, H131 allotype; also called FcgRIIa H; FcgRIIaH; not shown: His tag at the C terminus
# T6 sequence (looked up): T1 sequence (looked up) with R134H
# Method: as §1
# [7] = target: T7, FcγRIIb extracellular domain with C-terminal His tag (human, UniProt P31994 43-217); experiment: as above
# T7 construct: extracellular domain; also called FcgRIIb; CD32B; not shown: His tag at the C terminus
# T7 sequence (looked up): T3 sequence (looked up)
# Method: as §1
# [8] = target: T8, FcγRIIIa F extracellular domain with C-terminal His tag (human, UniProt P08637 17-208); experiment: as above
# T8 construct: extracellular domain; Soluble receptor, F158 allotype; also called FcgRIIIa F; FcgRIIIaF; not shown: His tag at the C terminus
# Method: as §1
# [9] = target: T9, FcγRIIIa V extracellular domain with C-terminal His tag (human, UniProt P08637 17-208); experiment: as above
# T9 construct: extracellular domain; Soluble receptor, V158 allotype; also called FcgRIIIa V; FcgRIIIaV; not shown: His tag at the C terminus
# Method: as §1
# [10] = target: T8, FcγRIIIa F extracellular domain with …; experiment: as above; remark: listed apart in the source
# Method: (§2) Specifically, H240-Hl134 (SEQ ID NO: 88) resulting from introduction of L234Y/L235Y/G236W/H268D/S298A into H240-Hl033 and H240-Kn132 (SEQ ID NO: 89) resulting from introduction of K326D/A330M/K334E into H240-Kn033 were constructed according to the method described in Reference Example 1.
# as §1
# [11] = target: T9, FcγRIIIa V extracellular domain with …; experiment: as above; remark: listed apart in the source
# Method: as §2, §1
# [12] = target: T10, FcgRIa (human, UniProt P12314 16-292); experiment: SPR (Biacore), antibody captured, FcgR as analyte
# T10 construct: extracellular domain; also called FcγRIa; FcγRI
# Method: as §1
# [13] = target: T11, FcgRIIa R (human, UniProt P12318 34-217); experiment: SPR (Biacore), antibody captured, FcgR as analyte
# T11 construct: extracellular domain; also called FcγRIIa R; FcγRIIa type R
# T11 sequence (looked up): T1 sequence (looked up)
# Method: as §1
# [14] = target: T12, FcgRIIa H (human, UniProt P12318 34-217); experiment: SPR (Biacore), antibody captured, FcgR as analyte
# T12 construct: extracellular domain; also called FcγRIIa H; FcγRIIa type H
# T12 sequence (looked up): T1 sequence (looked up) with R134H
# Method: as §1
# [15] = target: T13, FcgRIIb (human, UniProt P31994 43-217); experiment: SPR (Biacore), antibody captured, FcgR as analyte
# T13 construct: extracellular domain; also called FcγRIIb; CD32B
# T13 sequence (looked up): T3 sequence (looked up)
# Method: as §1
# [16] = target: T14, FcgRIIIa F (human, UniProt P08637 17-208); experiment: SPR (Biacore), antibody captured, FcgR as analyte
# T14 construct: extracellular domain; polymorphic site made after J. Clin. Invest; also called FcγRIIIa F
# Method: as §1
# [17] = target: T15, FcgRIIIa V (human, UniProt P08637 17-208); experiment: SPR (Biacore), antibody captured, FcgR as analyte
# T15 construct: extracellular domain; polymorphic site made after J. Clin. Invest; also called FcγRIIIa V
# Method: as §1
# T9 sequence (P08637 17-208 F176V): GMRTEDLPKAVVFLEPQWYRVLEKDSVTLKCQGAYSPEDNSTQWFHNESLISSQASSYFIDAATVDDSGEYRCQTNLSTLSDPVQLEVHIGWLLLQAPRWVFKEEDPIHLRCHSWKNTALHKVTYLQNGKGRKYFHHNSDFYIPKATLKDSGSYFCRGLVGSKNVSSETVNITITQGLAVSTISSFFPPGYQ
# T8 sequence (P08637 17-208): as the sequence (P08637 17-208 F176V) above, with V160F counted along it
# T15 sequence (P08637 17-208 F176V limits assumed): as the sequence (P08637 17-208 F176V) above
# T14 sequence (P08637 17-208): as the sequence (P08637 17-208 F176V) above, with V160F counted along it
# T4 sequence (P12314 16-292): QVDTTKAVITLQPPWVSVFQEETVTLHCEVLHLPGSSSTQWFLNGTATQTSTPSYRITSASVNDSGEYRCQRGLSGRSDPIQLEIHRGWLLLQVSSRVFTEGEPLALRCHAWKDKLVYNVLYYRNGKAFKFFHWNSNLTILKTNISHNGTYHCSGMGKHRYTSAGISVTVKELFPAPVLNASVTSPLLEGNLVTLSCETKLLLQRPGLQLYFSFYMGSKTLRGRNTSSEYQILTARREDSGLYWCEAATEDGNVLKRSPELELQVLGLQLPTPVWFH
# T10 sequence (P12314 16-292): as above
binder,measurement,setting,value
B1,relative KD,[1],480
same,relative KD,[2],0.9
same,relative KD,[3],349
B2,Kd,[4],0.14 nM
same,Kd,[5],350 nM
same,Kd,[6],280 nM
same,Kd,[7],1200 nM
same,Kd,[8],5.1 nM
same,Kd,[9],1.8 nM
same,Kd,[10],5.1 nM
same,Kd,[11],1.8 nM
B3,Kd,[12],0.14 nM
same,Kd,[13],350 nM
same,Kd,[14],280 nM
same,Kd,[15],1200 nM
same,Kd,[16],5.1 nM
same,Kd,[17],1.8 nM
